Source: IntAct's records for PubMed 16963558

B1: Non-structural protein 1 (Influenza A virus (strain A/Puerto Rico/8/1934 H1N1)), P03496 (parent)
chain: MDPNTVSSFQVDCFLWHVRKRVADQELGDAPFLDRLRRDQKSLRGRGSTLGLDIETATRAGKQIVERILKEESDEALKMTMASVPASRYLTDMTLEEMSRDWSMLIPKQKVAGPLCIRMDQAIMDKNIILKANFSVIFDRLETLILLRAFTEEGAIVGEISPLPSLPGHTAEDVKNAVGVLIGGLEWNDNTVRVSETLQRFAWRSSNENGRPPLTPKQKREMAGTIRSEV

Variants of: B1
Details: with p85b_human PIK3R2, O00459
p85b_human PIK3R2, O00459, sequence (O00459 whole entry): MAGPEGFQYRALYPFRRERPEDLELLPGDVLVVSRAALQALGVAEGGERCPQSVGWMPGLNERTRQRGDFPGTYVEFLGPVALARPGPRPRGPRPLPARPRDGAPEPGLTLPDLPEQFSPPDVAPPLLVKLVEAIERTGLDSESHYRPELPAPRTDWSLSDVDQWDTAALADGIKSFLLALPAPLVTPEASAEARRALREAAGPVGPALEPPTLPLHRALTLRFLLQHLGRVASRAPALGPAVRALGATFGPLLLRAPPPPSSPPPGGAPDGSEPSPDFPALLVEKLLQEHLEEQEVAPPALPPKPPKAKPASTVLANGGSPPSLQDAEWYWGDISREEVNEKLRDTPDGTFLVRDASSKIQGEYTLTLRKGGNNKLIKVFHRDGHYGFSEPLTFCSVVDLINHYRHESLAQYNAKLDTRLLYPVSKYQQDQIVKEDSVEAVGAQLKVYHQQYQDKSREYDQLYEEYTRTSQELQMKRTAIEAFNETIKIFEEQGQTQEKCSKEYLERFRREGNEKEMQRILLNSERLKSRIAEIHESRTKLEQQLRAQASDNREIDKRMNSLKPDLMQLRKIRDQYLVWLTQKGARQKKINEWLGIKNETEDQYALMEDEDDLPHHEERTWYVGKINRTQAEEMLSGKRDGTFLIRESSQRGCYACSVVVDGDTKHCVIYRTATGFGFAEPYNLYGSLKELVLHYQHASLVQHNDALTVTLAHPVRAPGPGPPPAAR

Row | Variant | effect of a mutation on the interaction
1 | Y89F | disrupting interaction strength
2 | M93A | disrupting interaction strength

Variants of: B1
Details: with p85b_bovin PIK3R2, P23726
p85b_bovin PIK3R2, P23726, sequence (P23726 whole entry): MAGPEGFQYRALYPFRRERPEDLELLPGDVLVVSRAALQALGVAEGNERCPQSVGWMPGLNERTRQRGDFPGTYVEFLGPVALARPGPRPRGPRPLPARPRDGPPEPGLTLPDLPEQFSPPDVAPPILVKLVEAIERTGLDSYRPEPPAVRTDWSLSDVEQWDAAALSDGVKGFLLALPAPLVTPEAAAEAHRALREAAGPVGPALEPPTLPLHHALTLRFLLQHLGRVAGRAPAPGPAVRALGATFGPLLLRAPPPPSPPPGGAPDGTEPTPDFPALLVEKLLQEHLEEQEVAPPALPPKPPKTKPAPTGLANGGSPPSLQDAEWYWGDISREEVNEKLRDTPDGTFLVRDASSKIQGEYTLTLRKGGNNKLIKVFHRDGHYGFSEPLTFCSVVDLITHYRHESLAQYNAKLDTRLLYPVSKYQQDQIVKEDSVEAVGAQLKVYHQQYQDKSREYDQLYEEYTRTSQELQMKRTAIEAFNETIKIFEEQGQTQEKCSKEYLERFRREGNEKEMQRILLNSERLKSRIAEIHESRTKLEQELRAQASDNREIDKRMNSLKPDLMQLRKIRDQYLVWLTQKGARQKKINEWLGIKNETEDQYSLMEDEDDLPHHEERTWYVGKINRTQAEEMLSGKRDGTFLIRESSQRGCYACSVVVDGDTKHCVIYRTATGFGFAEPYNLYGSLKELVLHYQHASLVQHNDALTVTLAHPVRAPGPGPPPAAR

Row | Variant | effect of a mutation on the interaction
3 | Y89F | disrupting interaction strength
